Measurements taken from the FLAb antibody collection (doi:10.7554/elife.23156).

B1: scFv; the commonest letter at each place (parent)
chain 1: EVKLDETGGGLVQPGRPMKLSCVASGFTFSDYWMNWVRQSPEKGLEWVAQIRNKPYNYETYYSDSVKGRFTISRDDSKSSVYLQMNNLRVEDMGIYYCTGSYYGMDYWGQGTSVTVS
chain 2: DVVMTQTPLSLPVSLGDQASISCRSSQSLVHSNGNTYLRWYLQKPGQSPKVLIYKVSNRFSGVPDRFSGSGSGTDFTLKISRVEAEDLGVYFCSQSTHVPWTFGGGTKLEIK

Tests used:
fluorescein = variants of: B1; assay: Kd (Tite-Seq); conditions: with fluorescein; format: scFv 4-4-20, heavy + light
[1] = variants of: B1; assay: yeast surface expression (ratio to wild type); higher = more expressed; conditions: format: scFv 4-4-20, heavy + light

Variant	Kd (fluorescein)	yeast surface expression [1]
chain 1 S30N Y32S	0.0146 µM	1.14
chain 1 S101H W108C	≥ 10 µM	0.28
chain 1 F29P Y32P	≥ 10 µM	0.856
chain 1 F29A	0.0221 µM	0.974
chain 1 F29S	0.0265 µM	0.933
chain 1 G100W G109S	≥ 10 µM	0.43
chain 1 F29L N35D	≥ 10 µM	0.64
chain 1 S101Y Y107E	≥ 10 µM	0.625
chain 1 N35P	≥ 10 µM	0.672
chain 1 Y32H M34Q	≥ 10 µM	0.862
chain 1 M105P W108E G109W	≥ 10 µM	0.297
chain 1 F29G S30N	≥ 10 µM	0.933
chain 1 D31V N35C	≥ 10 µM	0.424
chain 1 W33N N35I	≥ 10 µM	0.657
chain 1 S101Y Y103N D106L	≥ 10 µM	0.957
chain 1 T28K M34K	6.96 µM	0.284
chain 1 D31A W33I	≥ 10 µM	0.872
chain 1 N35I V37M	≥ 10 µM	0.626
chain 1 Y102M G104M	≥ 10 µM	0.472
chain 1 Y107C W108V	0.00468 µM	0.304
chain 1 S101R G104P	≥ 10 µM	0.361
chain 1 Y103S G109T	≥ 10 µM	0.469
chain 1 G100Q W108N	≥ 10 µM	0.289
chain 1 F29E D31R	≥ 10 µM	0.624

Variant	Kd (fluorescein)	yeast surface expression [1]
chain 1 Y103L Y107D	≥ 10 µM	0.471
chain 1 S101V Y107H	≥ 10 µM	0.556
chain 1 G104R M105C	≥ 10 µM	0.315
chain 1 M105V W108D	≥ 10 µM	0.437
chain 1 D31I W36E	≥ 10 µM	0.663
chain 1 Y32W W33Q	≥ 10 µM	0.886
chain 1 Y32E N35G	≥ 10 µM	1
chain 1 Y32E N35S	≥ 10 µM	0.87
chain 1 T28K F29C	0.0372 µM	0.906
chain 1 M105V D106E	≥ 10 µM	1.02
chain 1 Y103G W108F	0.00194 µM	1.06
chain 1 G104N Y107A	≥ 10 µM	0.74
chain 1 G100Y M105S	≥ 10 µM	0.377
chain 1 N35L W36I	≥ 10 µM	0.256
chain 1 F29Y N35H	≥ 10 µM	0.732
chain 1 Y102F G104H	≥ 10 µM	0.927
chain 1 G104K D106H	≥ 10 µM	0.594
chain 1 D31E	0.00278 µM	0.925
chain 1 D31F	0.00547 µM	0.636
chain 1 D31C	0.0747 µM	0.608
chain 1 D31L	0.00638 µM	0.509
chain 1 G100I Y103C M105Y	≥ 10 µM	0.694
chain 1 S30C W33I	≥ 10 µM	0.877
chain 1 Y102V G104N	≥ 10 µM	0.817

Variant	Kd (fluorescein)	yeast surface expression [1]
chain 1 Y102W G104H G109I	≥ 10 µM	0.0981
chain 1 S101T D106Q	≥ 10 µM	0.796
chain 1 Y107K W108Q	≥ 10 µM	0.659
chain 1 V37W	9.02 µM	0.746
chain 1 V37F	0.0259 µM	0.9
chain 1 S30R N35R	≥ 10 µM	0.535
chain 1 T28P D31S	0.00115 µM	1.07
chain 1 S101D G109H	≥ 10 µM	0.247
chain 1 M34C V37H	≥ 10 µM	0.466
chain 1 S30R M34D	≥ 10 µM	0.775
chain 1 G100E Y102S W108I	0.0302 µM	0.245
chain 1 S30F M34Y	0.00871 µM	0.762
chain 1 S30F M34C	4.14 µM	0.514
chain 1 G100D G109I	≥ 10 µM	0.553
chain 1 Y102S Y103S	0.021 µM	1.1
chain 1 D31H N35G	0.00468 µM	0.736
chain 1 F29K Y32N	≥ 10 µM	0.609
chain 1 T28K W33M	≥ 10 µM	1.03
chain 1 T28K W33S	≥ 10 µM	0.995
chain 1 S101T Y103Q	≥ 10 µM	1.11
chain 1 S101E Y102Q W108C	≥ 10 µM	0.541
chain 1 G104A M105E	≥ 10 µM	0.648
chain 1 M105C G109V	≥ 10 µM	0.171
chain 1 S30N V37W	≥ 10 µM	0.654

Variant	Kd (fluorescein)	yeast surface expression [1]
chain 1 D106W Y107N	≥ 10 µM	0.222
chain 1 S30M N35V V37A	≥ 10 µM	0.167
chain 1 G100M Y107T	≥ 10 µM	0.729
chain 1 S101E	≥ 10 µM	0.838
chain 1 S101R D106L	≥ 10 µM	0.0991
chain 1 S101R D106T	≥ 10 µM	0.466
chain 1 F29L W33D W36S	≥ 10 µM	0.585
chain 1 S101C Y103L	≥ 10 µM	0.522
chain 1 S30I D31T W36P	≥ 10 µM	0.928
chain 1 Y32C M34F	≥ 10 µM	0.872
chain 1 T28Y N35S	≥ 10 µM	0.691
chain 1 G100T Y102N	≥ 10 µM	0.932
chain 1 Y107V W108R	≥ 10 µM	0.492
chain 1 G100Q Y107C	≥ 10 µM	0.176
chain 1 T28K V37L	0.143 µM	1.01
chain 1 G100T G109K	≥ 10 µM	0.433
chain 1 D31F Y32V N35C	≥ 10 µM	0.0993
chain 1 Y102L D106E	3.04 µM	1.26
chain 1 F29K M34F	0.0233 µM	0.631
chain 1 Y103D M105Y	≥ 10 µM	1.03
chain 1 N35F V37D	≥ 10 µM	0.704
chain 1 W33Q N35E	≥ 10 µM	0.594
chain 1 M105F Y107S G109S	≥ 10 µM	0.81
chain 1 G104A	≥ 10 µM	0.693

Variant	Kd (fluorescein)	yeast surface expression [1]
chain 1 G104D	≥ 10 µM	0.918
chain 1 S101P G104T M105Y	≥ 10 µM	0.208
chain 1 G100R W108Y	≥ 10 µM	0.478
chain 1 Y107E W108E	≥ 10 µM	0.485
chain 1 T28A D31M	0.00239 µM	0.955
chain 1 Y103R M105K	0.00493 µM	0.768
chain 1 Y103E M105I	≥ 10 µM	0.9
chain 1 S101A D106L	0.00166 µM	0.302
chain 1 F29Y S30D	0.0038 µM	0.937
chain 1 Y103Q W108N	≥ 10 µM	0.415
chain 1 G100S Y102C	≥ 10 µM	0.675
chain 1 T28G D31C	≥ 10 µM	0.472
chain 1 M105A G109A	≥ 10 µM	0.685
chain 1 W36H V37F	≥ 10 µM	0.307
chain 1 W36H V37E	≥ 10 µM	0.267
chain 1 D31G N35Q	≥ 10 µM	0.746
chain 1 T28I F29L	0.0318 µM	0.851
chain 1 M105N G109Q	≥ 10 µM	0.235
chain 1 Y107R W108N	≥ 10 µM	0.495
chain 1 M105P G109I	≥ 10 µM	0.208
